Results taken from patent US20140094385, “SEQUENCE-SPECIFIC ENGINEERED RIBONUCLEASE H AND THE METHOD FOR DETERMINING THE SEQUENCE PREFERENCE OF DNA-RNA HYBRID BINDING PROTEINS” (MIEDZYNARODOWY INSTYUT BIOLOGII MOLEKULARNEJ I KOMORKOWEJ, published 2014).

B1: SELEX consensus hybrid (CDNA/CRNA) (DNA:RNA)
DNA: TCACTGGTCGGTGGGAATCCTC
RNA: GAGGAUUCCCACCGACCAGUGA
B2: literature ZfQQR site hybrid (LDNA/LRNA) (DNA:RNA)
DNA: TCACTGGGGAAGAAGAATCCTC
RNA: GAGGAUUCUUCUUCCCCAGUGA

Target: GST-ZfQQR (zinc finger ZfQQR) (artificial)
Sequence (chain, as listed by the source): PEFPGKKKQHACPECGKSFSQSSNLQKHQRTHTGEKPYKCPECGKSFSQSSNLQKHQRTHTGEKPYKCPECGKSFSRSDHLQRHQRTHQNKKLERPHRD
Test: filter; 25 mM Tris pH 8.0, 100 mM KCl, 20 uM ZnSO4, 2 mM DTT, poly dI-dC, room temperature; protein called zinc finger ZfQQR, GST fusion is the purified form described
Details: tags: N-terminal GST (pGEX-4T-1); label: radioactive
Method: To confirm that the consensus sequence obtained after five rounds of SELEX is bound by the zinc finger, a constant KD was measured using the nitrocellulose filter binding method. The assay was performed with radioactively labeled substrates described in the literature (LDNA, LRNA) and a consensus sequence (CDNA, CRNA) see FIG. 16:
Binding reaction contained 2 nM of labeled substrate, 2 μg poly dI-dC as a nonspecific competitor, 25 mM Tris pH 8.0, 100 mM KCl, 20 μM ZnSO₄, 2 mM DTT. The binding reaction was incubated for 30 min at room temperature and then filtered immediately through a nitrocellulose filter and washed with 8 volumes of reaction buffer of 25 mM Tris pH 8.0, 100 mM KCl, 20 μM ZnSO₄, 2 mM DTT. Measurement of the intensity of the signal coming from the retention of radioactively labeled substrate was made on an audioradiogram of the nitrocellulose filter using a Typhoon Trio scanner and ImageQuant TL software.

Row | Binder | Kd [nM]
1 | B1 | 155
2 | B2 | 188
